The target in the test is T1, 人绒毛膜促性腺激素(HCG) (human, UniProt P0DN86 21-165).
T1 construct: Alpha/beta heterodimer coated on ELISA plates; The source of the HCG preparation is lost from the text (gap after 'HCG |'); also called HCG抗原
The test is described as follows: ELISA, HCG coated at 2 μg/ml, VHH detected with anti-6xHis-HRP, 4-parameter fit.

Substitutions are numbered along the chain they refer to.

The values that follow come from patent CN113698481A (SUZHOU CENTERGENE PHARMACEUTICALS CO LTD, dated 2021).

T1 sequence (chain, as listed by the source, chain 1 of 2, other chains not shown): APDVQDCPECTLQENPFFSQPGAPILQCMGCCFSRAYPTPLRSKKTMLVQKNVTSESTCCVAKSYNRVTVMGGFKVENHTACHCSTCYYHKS

B1: SEQ ID NO 3 (VHH)
VHH: QVQVAESGGGLVQSGGSMNLSCTASGNLFSVDAMGWFRQAPGEEREAVAAIMWSGDSTYYANAVKGRFTISRDNAKNTVYLQMNSLKPEDTAVYYCAARLQEEGWWDYWGQGTQVTVSS
notes: Expressed in E. coli, nickel column purified; Only the CDRs are printed; also called 蛋白3
In turn, B1 registered an EC50 of 0.0259 µg/mL.

B2: SEQ ID NO 6 (VHH)
VHH: B1 VHH with A5V, S14P, M18L, N19R, T23A, N27R, L28T, F29V, V31S, D32H
notes: Expressed in E. coli, nickel column purified; Only the CDRs are printed; also called 蛋白6
On to B2, for which the EC50 turned out to be 0.0138 µg/mL.

B3: SEQ ID NO 7 (VHH)
VHH: QVQLVESGGGLVQAGGSLRLSCVASGRTFSSYDMGWFRQAPGEEREAVAAINWSGGSTYYADSVKGRFTISSDNAKNTVYLQMNNLKPEDTAVYYCAARQVPGWWDYWGQGTQVTVSS
notes: Expressed in E. coli, nickel column purified; Only the CDRs are printed; also called 蛋白7
In turn, B3 came in with an EC50 of 0.014 µg/mL.

B4: SEQ ID NO 5 (VHH)
VHH: QVQLVESGGGLAQAGGSLRLSCAASGRTASGYAMGWFRQAPGKEREAVAAIMWSGGSTYYADSVKGRFTISRDNAKNTVYLQMNSLKTEDTAVYYCAARTDGSGWWDYWGQGTQVTVSS
notes: Expressed in E. coli, nickel column purified; Only the CDRs are printed; also called 蛋白5
Turning to B4, the EC50 turned out to be 0.00946 µg/mL. This EC50 and that of the molecule before are within 1.5-fold of each other.

B5: SEQ ID NO 4 (VHH)
VHH: QVRLVESGGGLVQPGGSLRLSCTASGGTFDRYNVAWFRQAPGEEREAVASIMWSGDNTYYANSVKGRFTISRDNAKNTVYLQMNSLKPEDTAVYYCAARIQEQGWWDYWGQGTQVTVSS
notes: Expressed in E. coli, nickel column purified; Only the CDRs are printed; also called 蛋白4
In turn, B5 came in with a half-maximal effective concentration (EC50) of 0.00505 µg/mL.
